From patent US12173061B2, “Compositions and methods for treatment of chronic lung diseases” (Board of Regents, The University of Texas System, priority 2021, dated 2024)

B1: U5A protein: recombinant full length human UNC5A protein (SEQ ID NO: 5) (protein, listed as Homo sapiens)
chain: MAVRPGLWPALLGIVLAAWLRGSGAQQSATVANPVPGANPDLLPHFLVEPEDVYIVKNKPVLLVCKAVPATQIFFKCNGEWVRQVDHVIERSTDGSSGLPTMEVRINVSRQQVEKVFGLEEYWCQCVAWSSSGTTKSQKAYIRIAYLRKNFEQEPLAKEVSLEQGIVLPCRPPEGIPPAEVEWLRNEDLVDPSLDPNVYITREHSLVVRQARLADTANYTCVAKNIVARRRSASAAVIVYVDGSWSPWSKWSACGLDCTHWRSRECSDPAPRNGGEECQGTDLDTRNCTSDLCVHTASGPEDVALYVGLIAVAVCLVLLLLVLILVYCRKKEGLDSDVADSSILTSGFQPVSIKPSKADNPHLLTIQPDLSTTTTTYQGSLCPRQDGPSPKFQLTNGHLLSPLGGGRHTLHHSSPTSEAEEFVSRLSTQNYFRSLPRGTSNMTYGTFNFLGGRLMIPNTGISLLIPPDAIPRGKIYEIYLTLHKPEDVRLPLAGCQTLLSPIVSCGPPGVLLTRPVILAMDHCGEPSPDSWSLRLKKQSCEGSWEDVLHLGEEAPSHLYYCQLEASACYVFTEQLGRFALVGEALSVAAAKRLKLLLFAPVACTSLEYNIRVYCLHDTHDALKEVVQLEKQLGGQLIQEPRVLHFKDSYHNLRLSIHDVPSSLWKSKLLVSYQEIPFYHIWNGTQRYLHCTFTLERVSPSTSDLACKLWVWQVEGDGQSFSINFNITKDTRFAELLALESEAGVPALVGPSAFKIPFLIRQKIISSLDPPCRRGADWRTLAQKLHLDSHLSFFASKPSPTAMILNLWEARHFPNGNLSQLAAAVAGLGQPDAGLFTVSEAEC
B2: A5 protein: recombinant full length human ALG5 protein (SEQ ID NO: 9) (protein, listed as Homo sapiens)
chain: MAPLLLQLAVLGAALAAAALVLISIVAFTTATKMPALHRHEEEKFFLNAKGQKETLPSIWDSPTKQLSVVVPSYNEEKRLPVMMDEALSYLEKRQKRDPAFTYEVIVVDDGSKDQTSKVAFKYCQKYGSDKVRVITLVKNRGKGGAIRMGIFSSRGEKILMADADGATKFPDVEKLEKGLNDLQPWPNQMAIACGSRAHLEKESIAQRSYFRTLLMYGFHFLVWFLCVKGIRDTQCGFKLFTREAASRTFSSLHVERWAFDVELLYIAQFFKIPIAEIAVNWTEIEGSKLVPFWSWLQMGKDLLFIRLRYLTGAWRLEQTRKMN
B3: A5^ECD: recombinant extracellular domain of A5 (ECD of hALG5) (protein, listed as Homo sapiens)
chain: MTTATKMPALHRHEEEKFFLNAKGQKETLPSIWDSPTKQLSVVVPSYNEEKRLPVMMDEALSYLEKRQKADPAFTYEVIVVDDGSKDQTSKVAFKYCQKYGSDKVRVITLVKNRGKGGAIRMGIFSSRGEKILMADADGATKFPDVEKLEKGLNDLQPWPNQMAIACGSRAHLEKESIAQRSYFRTLLMYGFHFLVWFLCVKGIRDTQCGFKLFTREAASRTFSSLHVERWAFDVELLYIAQFFKIPIAEIAVNWTEIEGSKLVPFWSWLQMGKDLLFIRLRYLTGAWRLEQTRKMN

Test system: BLM-induced pulmonary fibrosis
Assay: BLM-induced established pulmonary fibrosis in mice, treatment d14-d21
Format: in vivo
Details: for BLM-induced pulmonary fibrosis (overall): mice, 1.0 U/kg BLM IT, protein 7.5 mg/kg/d IP daily for 7 days starting d14; for BLM-induced pulmonary fibrosis (overall) / lung compliance / lung elastance: d21; for BLM-induced fibrogenic marker proteins (Col1, FN, TN-C, α-SMA) in whole lung homogenates / body weight / collagen and other extracellular matrix deposits (Trichrome staining of lung sections) / fibrogenic marker transcripts in whole lung homogenates / lung weight / lung compliance / lung elastance / whole lung total hydroxyproline: protein 7.5 mg/kg/d IP, 7 days starting d14 after BLM; for lung compliance / lung elastance: flexiVent; for whole lung total hydroxyproline: lung homogenates
Protocol: FIGS. 9A-9O. M9 peptide and protein mitigated BLM-induced pulmonary fibrosis. Mice exposed to saline or 1.0 U/kg BLM by intratracheal instillation were treated with or without M9 peptide HGHVDPVKTPKI (SEQ ID NO: 4) (10 mg/kg/d) and M9 protein (SEQ ID NO: 1) 7.5 mg/kg/d) via IP injection daily for 7 days starting d14 after BLM injury. FIG. 9A: Representative micro-CT images at d21 after BLM exposure. FIG. 9B: Lung volumes were measured by quantitative-CT renditions. Lung compliance (FIG. 9C) and elastance (FIG. 9D) were measured using a flexiVent system. Lung weights (FIG. 9E) and body weights (FIG. 9F) are presented as bar graphs. Lung homogenates were tested for hydroxyproline (FIG. 9G), soluble collagen (FIG. 9H), pro-fibrogenic marker proteins (FIG. 9I) and mRNAs (FIG. 9J). Bars indicate mean±SD. Statistical significance (*P<0.05, **P<0.01, ***P<0.001 and ****P<0.0001) was assessed by one-way ANOVA with Turkey's multiple comparison. fLfs isolated from IPF lungs treated with PBS or recombinant full length M9 (rM9^FL) protein (2 μg/ml) for 48 h in vitro were tested for pro-fibrogenic proteins (FIG. 9L). fLfs (from IPF lungs) treated with PBS or extracellular domain of rM9^FL protein (rM9^ECD) as in FIG. 9L were tested for pro-fibrogenic proteins (FIG. 9N). The survival the mice treated with rM9^FL is shown FIG. 9M.
FIGS. 10A-10K. UNC5A (“U5”) peptide/protein mitigated BLM-induced pulmonary fibrosis. Mice exposed to saline or 1.0 U/kg BLM by intratracheal instillation were treated with or without U5 peptide (50 residues, SEQ ID NO: 7) (10 mg/kg/d) and full length U5 protein (SEQ ID NO: 5) (7.5 mg/kg/d) via IP injection daily for 7 days starting d14 after BLM injury. FIG. 10A: Representative micro-CT images at d21 after BLM exposure. FIG. 10B: Lung volumes were measured by quantitative-CT renditions. Lung compliance (FIG. 10C) and elastance (FIG. 10D) were measured using a flexiVent system. Lung weights (FIG. 10E) and body weights (FIG. 10F) are presented as bar graphs. Lung homogenates were tested for hydroxyproline (FIG. 10G), soluble collagen (FIG. 10H), pro-fibrogenic marker proteins (FIG. 10I) and mRNAs (FIG. 10J). Bars indicate mean±SD. Statistical significance (*P<0.05, **P<0.01, ***P<0.001 and ****P<0.0001) was assessed by one-way ANOVA with Turkey's multiple comparison.
FIGS. 11A-11K. ALG5 (“A5”) protein mitigated BLM-induced pulmonary fibrosis. Mice exposed to saline or 1.0 U/kg BLM by intratracheal instillation were treated with or without A5 protein (SEQ ID NO: 9) (7.5 mg/kg/d) via IP injection daily for 7 days starting d14 after BLM injury. FIG. 11A: Representative micro-CT images at d21 after BLM exposure. FIG. 11B: Lung volumes were measured by quantitative-CT renditions. Lung compliance (FIG. 11C) and elastance (FIG. 11D) were measured using a flexiVent system. Lung weights (FIG. 11E) and body weights (FIG. 11F) are presented as bar graphs. Lung homogenates were tested for hydroxyproline (FIG. 11G), soluble collagen (FIG. 11H), pro-fibrogenic marker proteins (FIG. 11I) and mRNAs (FIG. 11J). Bars indicate mean±SD. *P<0.05, **P<0.01, ***P<0.001 and ****P<0.0001 were obtained by one-way ANOVA with Turkey's multiple comparison.
FIGS. 12A-12E. WT mice with BLM-PF were treated with or without rM9^ECD (1.5 mg/kg) via intratracheal (IT) instillation daily for 7 d starting d 14 after BLM. Survival (FIG. 12A), body weights (FIG. 12B), lung volumes (FIG. 12C) and lung weights (FIG. 12D) were measured on d 21 post-BLM. Lung homogenates were tested for soluble collagen (FIG. 12E).
FIGS. 13A-13B. FIG. 13A: fLfs (IPF) treated with PBS or M9^mAb (2 μg/ml) or control IgG, tested for pro-fibrogenic proteins (i) and mRNAs (ii). FIG. 13B: WT mice with BLM-PF were left untreated, or intraperitoneal (IP) injected with control IgG or M9^mAb (2.5 mg/kg) daily for 7 d starting 14 d after IT BLM. Body weights (i) and total lung hydroxyproline (ii), and soluble collagen (iii) were measured. […]

Row | Molecule | BLM-induced pulmonary fibrosis (overall) (listed as Full Length U5A Protein) | BLM-induced pulmonary fibrosis (overall) (listed as U5a^FL) | BLM-induced pulmonary fibrosis (overall) (listed as U5 protein) | BLM-induced fibrogenic marker proteins (Col1, FN, TN-C, α-SMA) in whole lung homogenates | body weight | collagen and other extracellular matrix deposits (Trichrome staining of lung sections) | fibrogenic marker transcripts in whole lung homogenates | lung weight | lung compliance | lung elastance | whole lung total hydroxyproline | BLM-induced pulmonary fibrosis (overall) | BLM-induced pulmonary fibrosis (overall) (listed as A5^FL) | BLM-induced pulmonary fibrosis (overall) (listed as ALG5 (A5) Protein)
1 | B1 | Mitigated | mitigated | mitigated | inhibition | improvement | reduction | inhibition | reduction | improved | improved | reduction |  |  | 
2 | B2 |  |  |  | inhibition | improvement | reduction | inhibition | reduction | improved | improved | reduction | mitigated | mitigated | Mitigated
3 | B3 |  |  |  |  |  |  |  |  |  |  |  | mitigated |  | 
